Our source for the stoichiometry N values is publication doi:10.1101/449629.

The target in test [1] is Recombinant hamster MIF (Syrian golden hamster macrophage migration inhibitory factor) (Syrian golden hamster (Mesocricetus auratus)). Kind of test: SEC.
Test [2] shares this target. Kind of test: crystal structure.

For the substance “Recombinant hamster MIF (Syrian golden hamster macrophage migration inhibitory factor) (from UniProt A0A140EDM8 1-115) (natural protein)”, the stoichiometry N in test [1] and in test [2] was 3 each time.
